Target: myc-tagged murine CARD11 L225LI (murine) (UniProt Q8CIS0)
Assay: co-IP

fold increase in apparent oligomerization against wild-type CARD11: 3 fold
Substance: myc-tagged murine CARD11 L225LI (from UniProt Q8CIS0 1-1159) (natural protein)

Reference: PMC2943563
